The target in the data set is PDGF-BB (Homo sapiens, UniProt P01127 P01127:82-190). As to the kind of experiment: cell_activity; 3T3 proliferation; Table 2 prints 3.45. The conditions noted are these: tags: PeproTech; chain copies: 2 (inferred, homodimer).

The source of these data is US20090053138, “Stabilized Aptamers to Platelet Derived Growth Factor and their Use as Oncology Therapeutics” (published 2009).

Chain of PDGF-BB (P01127 82-190, one chain of several): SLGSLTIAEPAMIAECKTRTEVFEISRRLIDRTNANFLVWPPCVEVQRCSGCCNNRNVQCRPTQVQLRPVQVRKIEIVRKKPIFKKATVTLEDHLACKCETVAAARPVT

Regarding CACAGGCTACGGCACGTAGAGCATCACCATGATCCTGTG (ssDNA, 3'-inverted dT) [ARC124], half-maximal inhibition (IC50) was put at 20.7 nM. This lies in the double-digit nanomolar range.
